What was measured:
[1] = molecular target: T1, recombinant human platelet derived growth factor (PDGF-BB) (human, UniProt P01127 82-190); test: BIAcore SPR, cytokine immobilised via primary amines, antibody as analyte
T1 construct: also called human PDGF-BB; PDGF-BB cytokine
Method: BIAcore analysis of the original and humanized anti-PDGF clones was performed according to standard procedures. The cytokine was immobilized on the BIAchip by chemical linking via primary amines and the binding behavior of the antibodies was analyzed over 30 min.

[2] = molecular target: rat PDGF BB (rat, UniProt Q05028 74-182); test: solid phase ELISA: plate coated with the named form of PDGF, serial dilutions of mouse C1 Fab (axis in dilutions 1/x, no mass unit), OD
Sequence of rat PDGF BB (Q05028 74-182): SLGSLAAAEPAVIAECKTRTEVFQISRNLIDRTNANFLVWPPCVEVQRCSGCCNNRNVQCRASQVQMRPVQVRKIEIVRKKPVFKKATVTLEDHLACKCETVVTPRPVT

[3] = molecular target: T1, recombinant human platelet derived …; test: competition ELISA: antibody pre-incubated with 10 ng/ml PDGF-BB, then added to a plate coated with PDGF receptor beta/Fc; receptor-bound PDGF-BB detected by biotinylated anti-PDGF-BB antibody and streptavidin-alkaline phosphatase, OD405; blocked partner: PDGF receptor beta/Fc
Method: The ability of the rabbit scFvs to compete with the PDGF-1 receptor for binding to the PDGF-BB cytokine was determined in a competition assay. Binding of the scFvs to their target epitope on the PDGF-BB cytokine prevents PDGF-BB binding to the PDGF receptor coated on the plates. High protein binding 96-well plates were coated with 10 ng/well of recombinant human PDGF receptor beta/Fc chimera (R&D Systems, MN) in PBS overnight at 4° C. The plates were blocked with 5% sucrose/1% BSA/PBS for 1 h at 37° C. Serial dilutions of purified anti-PDGF-BB antibody were incubated with 10 ng/ml of recombinant human PDGF-BB at room temperature for 30 minutes before being added to the blocked and washed plates. After 2 h at room temperature, the plates were washed with PBS/0.05% Tween followed by another 2-hour incubation with biotinylated anti-PDGF-BB antibody (R&D Systems, MN) at room temperature. Next, streptavidin-alkaline phosphatase (Pierce, Rockford, Ill.) was added to the plates and incubated for 30 minutes at room temperature. The plates were washed 3×with PBS/0.05% Tween and 3× with PBS. Sigma 104 substrate suspended in PNPP buffer was added after the final wash step and the signal at OD405 was determined. […] F3 was then selected for humanization.

T1 sequence (P01127 82-190): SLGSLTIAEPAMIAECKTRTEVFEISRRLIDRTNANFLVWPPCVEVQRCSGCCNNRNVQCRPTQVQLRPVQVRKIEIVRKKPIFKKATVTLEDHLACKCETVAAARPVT

B1: C1 mouse anti-PDGF Fab (Fab, V domains shown)
VH: QVLLEQSGSELVRPGASVKLSCKASGYTFTSTWMNWVKKRPDQGLEWIGRIDPYDSETHYNQKFKDKAILTVDKSSSTAYMQLSRLTSEDSAVYYCARGGHMITPAMDYWGQGTSVTVSS
VL: VQVLTQSPAIMSASPGEKVTITCTASSSVSYMHWFQQKPGTSPKLLIYSASNLASGVPARFSGSGSGTSYSLTISRMEAEDAATYYCQQRSSYPWTFGGGTKLEIKR
notes: Mouse light chain and heavy chain Fd cloned in phagemid pRL4; purified over a Ni column; detected by an HA tag; also called mouse C1; murine antibody C1
**Q.** For B1, which Ka [1] is on record?
**A.** The Ka was 2.31e+09 M⁻¹.

**Q.** And the Kd [1]?
**A.** The Kd was 433 pM.

**Q.** And the koff [1]?
**A.** The koff was 4.62e-05 s⁻¹.

**Q.** What about the kon [1] of the same binder?
**A.** The kon was 107000 M⁻¹ s⁻¹.

**Q.** Does B1 bind [2]?
**A.** Result: no binding

**Q.** And the “IC50 (read off the curve)” value [3]?
**A.** The value was roughly 0.4 µg/mL.
